Source: paper PMC6202329
Blank lines part the entries; values can stand above or below the substance they belong to.

What was measured:
Assay in all cases: complementary split luciferase
Conditions in all cases: n = 5; parent: est. 1.0; read off a plot
[1] = molecular target: ARAF(DDEE/L358M) fused to Nluc or Cluc (UniProt P10398)
[2] = molecular target: ARAF(DDEE/L358M/APE) fused to Nluc or Cluc (UniProt P10398)
[3] = molecular target: ARAF(DDEE/L358M/R362H/APE) fused to Nluc or Cluc (UniProt P10398)
[4] = molecular target: ARAF(DDEE/L358M/R362H) fused to Nluc or Cluc (UniProt P10398)

response [1]: 3.3
Substance: ARAF (wild type) fused to Nluc or Cluc (from UniProt P10398) DGEE; L358M

response [2]: 5.4
Substance: ARAF (wild type) fused to Nluc or Cluc (from UniProt P10398) DGEE; L358M; APE

response [3]: 3.6
Substance: ARAF (wild type) fused to Nluc or Cluc (from UniProt P10398) DGEE; L358M; APE; R362H

response [4]: 1.1
Substance: ARAF (wild type) fused to Nluc or Cluc (from UniProt P10398) DGEE; L358M; R362H
